Measurements as given in patent US20160272683A1 (Novo Nordisk, published 2016).
Numbered stars: 1 amine (or outer) side, 2 acyl side, 3 side chain; on linkers, the order of the positions; unused ones are H or OH. Side chains are listed from the residue outwards. Ends that are not written are not given here. * marks the point of attachment. C20 diacid = O=C(O)CCCCCCCCCCCCCCCCCCC(=O)*; C16 diacid = O=C(O)CCCCCCCCCCCCCCC(=O)*; γGlu = O=C(O)[C@H](CCC(=O)[*:2])N[*:1]; C14 diacid = O=C(O)CCCCCCCCCCCCC(=O)*; AEEA = NCCOCCOCC(=O)O

T1: human calcitonin receptor (human, UniProt P30988 25-474)
T1 sequence (looked up): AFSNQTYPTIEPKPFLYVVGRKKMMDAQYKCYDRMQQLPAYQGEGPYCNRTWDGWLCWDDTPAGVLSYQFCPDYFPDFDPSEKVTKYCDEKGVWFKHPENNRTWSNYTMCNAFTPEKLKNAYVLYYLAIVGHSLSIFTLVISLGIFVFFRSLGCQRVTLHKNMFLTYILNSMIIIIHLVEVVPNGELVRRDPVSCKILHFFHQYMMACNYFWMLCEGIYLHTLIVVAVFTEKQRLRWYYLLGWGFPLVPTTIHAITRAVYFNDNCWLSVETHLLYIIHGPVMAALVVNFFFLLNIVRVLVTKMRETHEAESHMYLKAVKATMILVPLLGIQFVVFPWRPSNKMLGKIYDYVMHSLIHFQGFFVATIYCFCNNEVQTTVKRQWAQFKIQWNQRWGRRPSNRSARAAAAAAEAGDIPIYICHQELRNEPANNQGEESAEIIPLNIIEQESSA

T2: human amylin 3(a) receptor (human calcitonin receptor co-expressed with RAMP-3) (human, UniProt P30988 25-474; O60896 24-148, limits assumed)
T2 sequence (looked up) 1: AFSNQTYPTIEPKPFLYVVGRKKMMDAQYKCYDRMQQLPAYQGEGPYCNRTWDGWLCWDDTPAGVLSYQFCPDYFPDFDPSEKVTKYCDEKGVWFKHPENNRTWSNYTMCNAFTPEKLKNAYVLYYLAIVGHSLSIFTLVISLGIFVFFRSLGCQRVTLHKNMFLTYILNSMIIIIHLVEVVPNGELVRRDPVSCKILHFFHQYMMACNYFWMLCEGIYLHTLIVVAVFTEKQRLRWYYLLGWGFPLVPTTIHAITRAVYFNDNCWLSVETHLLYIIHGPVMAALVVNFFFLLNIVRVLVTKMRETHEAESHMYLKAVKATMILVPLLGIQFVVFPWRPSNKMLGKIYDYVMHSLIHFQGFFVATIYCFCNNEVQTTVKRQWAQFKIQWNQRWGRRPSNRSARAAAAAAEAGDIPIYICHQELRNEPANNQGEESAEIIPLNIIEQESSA
T2 sequence (looked up) 2: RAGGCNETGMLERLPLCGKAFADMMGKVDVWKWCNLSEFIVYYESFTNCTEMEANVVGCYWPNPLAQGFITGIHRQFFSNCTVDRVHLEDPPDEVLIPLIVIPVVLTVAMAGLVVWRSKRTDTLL


Columns and labels:
[1] = target: T1, human calcitonin receptor; assay: cell-based or functional assay
[2] = target: T2, human amylin 3(a) receptor (human …); assay: cell-based or functional assay

Row | hCTR funct. EC50 (pM) [1] [pM] | hAmylin-R funct. EC50 (pM) [2] [pM] | Binder
1 | 19 | 28 | ASELSTAALGRLSAELHK([γGlu-C20 diacid])LATLPRTETGSGSP-NH2 (N-terminus assumed; SMILES CC(C)C[C@H](NC(=O)[C@H](C)NC(=O)[C@H](C)NC(=O)[C@@H](NC(=O)[C@H](CO)NC(=O)[C@H](CC(C)C)NC(=O)[C@H](CCC(=O)O)NC(=O)[C@H](CO)NC(=O)[C@H](C)N)[C@@H](C)O)C(=O)NCC(=O)N[C@@H](CCCNC(=N)N)C(=O)N[C@@H](CC(C)C)C(=O)N[C@@H](CO)C(=O)N[C@@H](C)C(=O)N[C@@H](CCC(=O)O)C(=O)N[C@@H](CC(C)C)C(=O)N[C@@H](Cc1c[nH]cn1)C(=O)N[C@@H](CCCCNC(=O)CC[C@H](NC(=O)CCCCCCCCCCCCCCCCCCC(=O)O)C(=O)O)C(=O)N[C@@H](CC(C)C)C(=O)N[C@@H](C)C(=O)N[C@H](C(=O)N[C@@H](CC(C)C)C(=O)N1CCC[C@H]1C(=O)N[C@@H](CCCNC(=N)N)C(=O)N[C@H](C(=O)N[C@@H](CCC(=O)O)C(=O)N[C@H](C(=O)NCC(=O)N[C@@H](CO)C(=O)NCC(=O)N[C@@H](CO)C(=O)N1CCC[C@H]1C(N)=O)[C@@H](C)O)[C@@H](C)O)[C@@H](C)O) [[des1, 19K(C20 diacid-gGlu), 30S, 31G]mimylin]
2 | 31 | 22 | ASELSTAALGRLSAK([γGlu-C20 diacid])LHELATLPRTETGSGSP-NH2 (N-terminus assumed; SMILES CC(C)C[C@H](NC(=O)[C@H](C)NC(=O)[C@H](C)NC(=O)[C@@H](NC(=O)[C@H](CO)NC(=O)[C@H](CC(C)C)NC(=O)[C@H](CCC(=O)O)NC(=O)[C@H](CO)NC(=O)[C@H](C)N)[C@@H](C)O)C(=O)NCC(=O)N[C@@H](CCCNC(=N)N)C(=O)N[C@@H](CC(C)C)C(=O)N[C@@H](CO)C(=O)N[C@@H](C)C(=O)N[C@@H](CCCCNC(=O)CC[C@H](NC(=O)CCCCCCCCCCCCCCCCCCC(=O)O)C(=O)O)C(=O)N[C@@H](CC(C)C)C(=O)N[C@@H](Cc1c[nH]cn1)C(=O)N[C@@H](CCC(=O)O)C(=O)N[C@@H](CC(C)C)C(=O)N[C@@H](C)C(=O)N[C@H](C(=O)N[C@@H](CC(C)C)C(=O)N1CCC[C@H]1C(=O)N[C@@H](CCCNC(=N)N)C(=O)N[C@H](C(=O)N[C@@H](CCC(=O)O)C(=O)N[C@H](C(=O)NCC(=O)N[C@@H](CO)C(=O)NCC(=O)N[C@@H](CO)C(=O)N1CCC[C@H]1C(N)=O)[C@@H](C)O)[C@@H](C)O)[C@@H](C)O) [[des1, 16K(C20 diacid-gGlu), 30S, 31G]mimylin]
3 | 34 | 39 | ASK([γGlu-C20 diacid])LSTAALGRLSAELHELATLPRTETGSGSP-NH2 (N-terminus assumed; SMILES CC(C)C[C@H](NC(=O)[C@H](C)NC(=O)[C@H](C)NC(=O)[C@@H](NC(=O)[C@H](CO)NC(=O)[C@H](CC(C)C)NC(=O)[C@H](CCCCNC(=O)CC[C@H](NC(=O)CCCCCCCCCCCCCCCCCCC(=O)O)C(=O)O)NC(=O)[C@H](CO)NC(=O)[C@H](C)N)[C@@H](C)O)C(=O)NCC(=O)N[C@@H](CCCNC(=N)N)C(=O)N[C@@H](CC(C)C)C(=O)N[C@@H](CO)C(=O)N[C@@H](C)C(=O)N[C@@H](CCC(=O)O)C(=O)N[C@@H](CC(C)C)C(=O)N[C@@H](Cc1c[nH]cn1)C(=O)N[C@@H](CCC(=O)O)C(=O)N[C@@H](CC(C)C)C(=O)N[C@@H](C)C(=O)N[C@H](C(=O)N[C@@H](CC(C)C)C(=O)N1CCC[C@H]1C(=O)N[C@@H](CCCNC(=N)N)C(=O)N[C@H](C(=O)N[C@@H](CCC(=O)O)C(=O)N[C@H](C(=O)NCC(=O)N[C@@H](CO)C(=O)NCC(=O)N[C@@H](CO)C(=O)N1CCC[C@H]1C(N)=O)[C@@H](C)O)[C@@H](C)O)[C@@H](C)O) [[des1, 4K(C20 diacid-gGlu), 30S, 31G]mimylin]
4 | 7 | 27 | {C14 diacid-γGlu-γGlu-AEEA-AEEA-AEEA-AEEA}-EASELSTAALGRLSAELHELATLPRTETGPESP-NH2 [[N-terminal(C14 diacid-2xgGlu-4xOEG)]mimylin]
5 | 5 | 7 | {C14 diacid}-ASELSTAALGRLSAELHELATLPRTETGSGSP-NH2 [[N-terminal(C14 diacid), des1, 30S, 31G]mimylin]
6 | 23 | 22 | {C20 diacid-γGlu}-ASELSTAALGRLSAELHELATYPRTETGSGSP-NH2 (SMILES CC(C)C[C@H](NC(=O)[C@H](C)NC(=O)[C@H](C)NC(=O)[C@@H](NC(=O)[C@H](CO)NC(=O)[C@H](CC(C)C)NC(=O)[C@H](CCC(=O)O)NC(=O)[C@H](CO)NC(=O)[C@H](C)NC(=O)CC[C@H](NC(=O)CCCCCCCCCCCCCCCCCCC(=O)O)C(=O)O)[C@@H](C)O)C(=O)NCC(=O)N[C@@H](CCCNC(=N)N)C(=O)N[C@@H](CC(C)C)C(=O)N[C@@H](CO)C(=O)N[C@@H](C)C(=O)N[C@@H](CCC(=O)O)C(=O)N[C@@H](CC(C)C)C(=O)N[C@@H](Cc1c[nH]cn1)C(=O)N[C@@H](CCC(=O)O)C(=O)N[C@@H](CC(C)C)C(=O)N[C@@H](C)C(=O)N[C@H](C(=O)N[C@@H](Cc1ccc(O)cc1)C(=O)N1CCC[C@H]1C(=O)N[C@@H](CCCNC(=N)N)C(=O)N[C@H](C(=O)N[C@@H](CCC(=O)O)C(=O)N[C@H](C(=O)NCC(=O)N[C@@H](CO)C(=O)NCC(=O)N[C@@H](CO)C(=O)N1CCC[C@H]1C(N)=O)[C@@H](C)O)[C@@H](C)O)[C@@H](C)O) [[N-terminal(C20 diacid-gGlu), des1, 23Y, 30S, 31G]mimylin]
7 | 10 | 10 | {C16 diacid}-ASELSTAALGRLSAELHELATLPRTETGSGSP-NH2 [[N-terminal(C16 diacid), des1, 30S, 31G]mimylin]
8 | 22 | 20 | {C20 diacid-γGlu}-AASELSTAALGRLSAELHELATYPRTETGSGSP-NH2 (SMILES CC(C)C[C@H](NC(=O)[C@H](C)NC(=O)[C@H](C)NC(=O)[C@@H](NC(=O)[C@H](CO)NC(=O)[C@H](CC(C)C)NC(=O)[C@H](CCC(=O)O)NC(=O)[C@H](CO)NC(=O)[C@H](C)NC(=O)[C@H](C)NC(=O)CC[C@H](NC(=O)CCCCCCCCCCCCCCCCCCC(=O)O)C(=O)O)[C@@H](C)O)C(=O)NCC(=O)N[C@@H](CCCNC(=N)N)C(=O)N[C@@H](CC(C)C)C(=O)N[C@@H](CO)C(=O)N[C@@H](C)C(=O)N[C@@H](CCC(=O)O)C(=O)N[C@@H](CC(C)C)C(=O)N[C@@H](Cc1c[nH]cn1)C(=O)N[C@@H](CCC(=O)O)C(=O)N[C@@H](CC(C)C)C(=O)N[C@@H](C)C(=O)N[C@H](C(=O)N[C@@H](Cc1ccc(O)cc1)C(=O)N1CCC[C@H]1C(=O)N[C@@H](CCCNC(=N)N)C(=O)N[C@H](C(=O)N[C@@H](CCC(=O)O)C(=O)N[C@H](C(=O)NCC(=O)N[C@@H](CO)C(=O)NCC(=O)N[C@@H](CO)C(=O)N1CCC[C@H]1C(N)=O)[C@@H](C)O)[C@@H](C)O)[C@@H](C)O) [[N-terminal(C20 diacid-gGlu), 1A, 23Y, 30S, 31G]mimylin]
9 | 4 | 6 | {C14 diacid-γGlu}-ASELSTAALGRLSAELHELATLPRTETGSGSP-NH2 [[N-terminal(C14 diacid-gGlu), des1, 30S, 31G]mimylin]
10 | 2 | 6 | {C14 diacid}-EASELSTAALGRLSAELHELATLPRTETGPESP-NH2 [[N-terminal(C14 diacid)]mimylin]
